Numbering of substitutions follows the chain as printed. Names may count otherwise. Where no end group is shown, it is not given here.
B1: DXDU01_3#072 (antibody, V domains shown)
VH: QVQLVESGGGLVQPGRSLRLSCAASGFTFSNAWMHWVRQAPGKGLEWVAQIKDRSQLYAAYYAPSVKGRFTISRDDSKNSIYLQMNSLKTEDTAVYYCHYVHYASASTVLGAYGVDAWGQGTTVTVSS
VL: DIVMTQSPLSLPVTPGEPASISCRSSQSLVHSNRNTYLHWYQQKPGQAPRLLIYKVSNRFSGVPDRFSGSGSGTDFTLKISRVEAEDVGVYYCGQGTQVPYTFGQGTKLEIK
notes: Human IgG1; light chain GLS3000 (kappa); also called dBBDu122
B2: dBBDu125 (antibody, human IgG1, V domains shown)
VH: QVQLVESGGGLVQPGRSLRLSCAASGFTFSIAWMHWVRQAPGKGLEWVAQIKDKVNGYTAYYAESVKGRFTISRDDSKNSIYLQMNSLKTEDTAVYYCRYVHYAAYYDVLGYGGVDAWGQGTTVTVSS
VL: B1 VL
notes: human IgG1; GLS3000 light chain; also called DXDU01_3 #019; DXDU01_3_#019
B3: dBBDu183 (antibody, human IgG1, V domains shown)
VH: B1 VH with R54K, S55G, Q56N, L57A, G111P, Y113F
VL: B1 VL
notes: human IgG1; GLS3000 light chain
B4: dBBDu179 (antibody, human IgG1, V domains shown)
VH: B1 VH with Q56N, L57Q, A60T, G111P, Y113F
VL: B1 VL
notes: as for B3
B5: H183/L072 with S93Y (Kabat) in VL dBBDu072L (antibody, name in Kabat numbering, V domains shown)
VH: B1 VH with R54K, S55G, Q56N, L57A, G111P, Y113F
VL: B1 VL with R24Q, S25A, S28E, S32M, S61P, G94A, Q98Y, Y101F
notes: Single-mutation variant of H183L072
B6: H183/L072 with A89Y (Kabat) in VL dBBDu072L (antibody, name in Kabat numbering, V domains shown)
VH: B1 VH with R54K, S55G, Q56N, L57A, G111P, Y113F
VL: B1 VL with R24Q, S25A, S28E, S32M, S61P, G94Y, Q98S, Y101F
notes: as for B5
B7: H183/L072 with P56Y (Kabat) in VL dBBDu072L (antibody, name in Kabat numbering, V domains shown)
VH: B1 VH with R54K, S55G, Q56N, L57A, G111P, Y113F
VL: B1 VL with R24Q, S25A, S28E, S32M, S61Y, G94A, Q98S, Y101F
notes: as for B5
B8: H183/L072 with F55Y (Kabat) in VL dBBDu072L (antibody, name in Kabat numbering, V domains shown)
VH: B1 VH with R54K, S55G, Q56N, L57A, G111P, Y113F
VL: B1 VL with R24Q, S25A, S28E, S32M, F60Y, S61P, G94A, Q98S, Y101F
notes: as for B5
B9: H183/L072 with N53Y (Kabat) in VL dBBDu072L (antibody, name in Kabat numbering, V domains shown)
VH: B1 VH with R54K, S55G, Q56N, L57A, G111P, Y113F
VL: B1 VL with R24Q, S25A, S28E, S32M, N58Y, S61P, G94A, Q98S, Y101F
notes: as for B5
B10: H183/L072 with S52Y (Kabat) in VL dBBDu072L (antibody, name in Kabat numbering, V domains shown)
VH: B1 VH with R54K, S55G, Q56N, L57A, G111P, Y113F
VL: B1 VL with R24Q, S25A, S28E, S32M, S57Y, S61P, G94A, Q98S, Y101F
notes: as for B5
B11: H183/L072 with T97Y (Kabat) in VL dBBDu072L (antibody, name in Kabat numbering, V domains shown)
VH: B1 VH with R54K, S55G, Q56N, L57A, G111P, Y113F
VL: B1 VL with R24Q, S25A, S28E, S32M, S61P, G94A, Q98S, Y101F, T102Y
notes: as for B5
B12: H183/L072 with F96Y (Kabat) in VL dBBDu072L (antibody, name in Kabat numbering, V domains shown)
VH: B1 VH with R54K, S55G, Q56N, L57A, G111P, Y113F
VL: B1 VL with R24Q, S25A, S28E, S32M, S61P, G94A, Q98S
notes: as for B5
B13: H183/L072 with R54Y (Kabat) in VL dBBDu072L (antibody, name in Kabat numbering, V domains shown)
VH: B1 VH with R54K, S55G, Q56N, L57A, G111P, Y113F
VL: B1 VL with R24Q, S25A, S28E, S32M, R59Y, S61P, G94A, Q98S, Y101F
notes: as for B5
B14: Dual-Fab H183/L072 variant with single light chain mutation K50Y (Kabat) (antibody, name in Kabat numbering, V domains shown)
VH: B1 VH with R54K, S55G, Q56N, L57A, G111P, Y113F
VL: B1 VL with R24Q, S25A, S28E, S32M, K55Y, S61P, G94A, Q98S, Y101F
notes: expressed as an antibody in Expi293 and purified on Protein A; also called dBBDu183H / dBBDu072L K50Y

Biological target: T1, human CD137-Fc (human, biotin-labeled)
T1 construct: if 90 already holds the Fc, drop the second piece; also called biotin-labeled human CD137 fused to human IgG1 Fc fragment; biotin-human CD137-Fc; not shown: human IgG1 Fc fragment
Assay: bead ELISA, IgG on biotinylated antigen, luminescence;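 also: biotinylated antigen captured on streptavidin magnetic beads, then incubated with purified IgG at 50 ng/µL for 1 h at room temperature before detection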

RLU	S/N ratio (human CD137-Fc/Fc)	Binder
14100 RLU	6.58	B1

Biological target: T2, cyno CD137-Fc (cynomolgus monkey; human, limits assumed, biotin-labeled)
T2 construct: whole entry 92 named; also called biotin-labeled cynomolgus monkey CD137 fused to human IgG1 Fc fragment; not shown: human IgG1 Fc fragment
T2 chain: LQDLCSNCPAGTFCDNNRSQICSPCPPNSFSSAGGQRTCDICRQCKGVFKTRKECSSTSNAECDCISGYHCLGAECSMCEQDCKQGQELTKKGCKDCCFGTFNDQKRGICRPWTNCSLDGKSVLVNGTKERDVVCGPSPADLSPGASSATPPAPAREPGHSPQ
Assay: as above

RLU	S/N ratio (cyno CD137-Fc/Fc)	Binder
3350 RLU	1.56	B1

Biological target: T3, biotin-labeled human CD137 fused to human IgG1 Fc fragment (human, UniProt Q07011 24-186, biotin-labeled)
T3 construct: also called human CD137-Fc; biotin-human CD137-Fc; not shown: human IgG1 Fc fragment
Assay: bead ELISA, 1250 ng IgG, S/N over biotin-human Fc

binding result	Binder
binds	B2
binds	B3
binds	B4

Biological target: T4, Human CD3eg linker (human)
T4 construct: Single chain: CD3 epsilon and gamma subunits joined by a 29-mer linker, Flag-tag at the C-terminus; also called recombinant human CD3
T4 chain: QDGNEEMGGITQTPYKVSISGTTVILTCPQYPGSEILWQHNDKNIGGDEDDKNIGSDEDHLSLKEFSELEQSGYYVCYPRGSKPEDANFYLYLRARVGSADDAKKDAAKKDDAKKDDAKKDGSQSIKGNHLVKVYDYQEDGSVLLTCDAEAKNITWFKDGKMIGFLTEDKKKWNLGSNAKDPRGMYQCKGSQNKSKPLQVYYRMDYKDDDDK
Assay: affinity relative to template H183/L072, single-mutation scan

fold change of affinity for CD3	Binder
0.7 fold	B5
0.5 fold	B6
2.7 fold	B7
10.6 fold	B8
0.7 fold	B9
1.5 fold	B10
0.2 fold	B11
0.4 fold	B12
1.6 fold	B13

Biological target: T1, human CD137-Fc
Assay: bead ELISA on biotin-human CD137-Fc, 0 pmol free CD3e peptide

ELISA signal	Binder
2700	B1

Biological target: T5, Biotin-labeled CD3 epsilon peptide antigen (human, also: biotin-labeled, site not given here)
T5 construct: also called CD3 peptide
T5 peptide: QDGNEEMGGITQTPY
Assay: bead ELISA, IgG on biotinylated CD3 epsilon peptide, luminescence

RLU	S/N ratio (CD3 peptide/non coating)	Binder
177000 RLU	148	B1

Biological target: T1, human CD137-Fc
Assay: bead ELISA on biotin-human CD137-Fc, 125 vs 0 pmol free CD3e peptide;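 also: target captured on streptavidin-coated magnetic beads, signal read as fluorescence 2 min after adding APS-5 substrate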

Signal decrease	Binder
30.2%	B1

Biological target: T6, Human CD137 ECD (human)
T6 construct: also called human CD137 extracellular domain; hCD137
Assay: SPR (Biacore), affinity of single-mutation variant against parental H183/L072

fold change of affinity for CD137	Binder
0 fold	B14

Biological target: T1, human CD137-Fc
Assay: bead ELISA on biotin-human CD137-Fc with 125 pmol/well free CD3e peptide as competitor;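 also: Streptavidin-coated magnetic beads in blocking buffer as the capture surface, well signal read as fluorescence 2 min after adding APS-5 substrate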

ELISA signal	Binder
1880	B1

From patent publication US20210388087A1 (Chugai, published 2021)
